What all share (assay type): cell-based, Saccharomyces cerevisiae
One test has as its system Hua2. In words: Deep mutational scanning of Abp1 SH3, Abp1-Hua2 DHFR-PCA (DMS score). The following applies: for HUA2_MTX2 = frequencies normalized to the reference condition: Hua2, MTX2, amino acid format; for hua2sc = Frequencies scaled to the synonymous mutation distribution (DMS score): Hua2. In short, it runs like this:
(§1)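 Sequencing of the genomic SH3 locus before and after two rounds of liquid DHFR-PCA selection (72 h, 30 °C each) gave the score. Mutants covering every codon of the domain were expressed from the native ABP1 locus in diploids carrying DHFR-tagged prey.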

A further test relates to Lsb3. In words: Deep mutational scanning of Abp1 SH3, Abp1-Lsb3 DHFR-PCA (DMS score). The following applies: for LSB3_MTX2 = frequencies normalized to the reference condition: Lsb3, MTX2, amino acid format; for lsb3sc = Frequencies scaled to the synonymous mutation distribution (DMS score): Lsb3. A digest of the protocol: as §1
For a further test, the system named is Hua2 and Lsb3. In words: Deep mutational scanning of Abp1 SH3, quadrant by Hua2 and Lsb3 DMS scores.

B1: ABP1 G44G (protein, UniProt P15891 2-592, looked up)
Actin-binding protein: ALEPIDYTTHSREIDAEYLKIVRGSDPDTTWLIISPNAKKEYEPESTGSSFHDFLQLFDETKVQYGLARVSPPGSDVEKIIIIGWCPDSAPLKTRASFAANFAAVANNLFKGYHVQVTARDEDDLDENELLMKISNAAGARYSIQTSSKQQGKASTPPVKKSFTPSKSPAPVSKKEPVKTPSPAPAAKISSRVNDNNDDDDWNEPELKERDFDQAPLKPNQSSYKPIGKIDLQKVIAEEKAKEDPRLVQKPTAAGSKIDPSSDIANLKNESKLKRDSEFNSFLGTTKPPSMTESSLKNDDDKVIKGFRNEKSPAQLWAERKAKQNSGNAETKAEAPKPEVPEDEPEGEPDVKDLKSKFEGLAASEKEEEEMENKFAPPPKKSEPTIISPKPFSKPQEPVKAEEAEQPKTDYKKIGNPLPGMHIEADNEEEPEENDDDWDDDEDEAAQPPLPSRNVASGAPVQKEEPEQEEIAPSLPSRNSIPAPKQEEAPEQAPEEEIEEEAEEAAPQLPSRSSAAPPPPPRRATPEKKPKENPWATAEYDYDAAEDNELTFVENDKIINIEFVDDDWWLGELEKDGSKGLFPSNYVSLGN
modifications: synonymous codon change G44G
Turning to B1, in the test on Hua2, the “HUA2_MTX2 = frequencies normalized to the reference condition” value worked out at 1.505 and the “hua2sc = Frequencies scaled to the synonymous mutation distribution (DMS score)” value was -0.1077. In addition, in the test on Lsb3, the “LSB3_MTX2 = frequencies normalized to the reference condition” value is 1.253 and the “lsb3sc = Frequencies scaled to the synonymous mutation distribution (DMS score)” value was -0.247. In the test with Hua2 and Lsb3, the quadrant result is “Neutral”.

B2: ABP1 S45S (protein, UniProt P15891 2-592, looked up)
Actin-binding protein: ALEPIDYTTHSREIDAEYLKIVRGSDPDTTWLIISPNAKKEYEPESTGSSFHDFLQLFDETKVQYGLARVSPPGSDVEKIIIIGWCPDSAPLKTRASFAANFAAVANNLFKGYHVQVTARDEDDLDENELLMKISNAAGARYSIQTSSKQQGKASTPPVKKSFTPSKSPAPVSKKEPVKTPSPAPAAKISSRVNDNNDDDDWNEPELKERDFDQAPLKPNQSSYKPIGKIDLQKVIAEEKAKEDPRLVQKPTAAGSKIDPSSDIANLKNESKLKRDSEFNSFLGTTKPPSMTESSLKNDDDKVIKGFRNEKSPAQLWAERKAKQNSGNAETKAEAPKPEVPEDEPEGEPDVKDLKSKFEGLAASEKEEEEMENKFAPPPKKSEPTIISPKPFSKPQEPVKAEEAEQPKTDYKKIGNPLPGMHIEADNEEEPEENDDDWDDDEDEAAQPPLPSRNVASGAPVQKEEPEQEEIAPSLPSRNSIPAPKQEEAPEQAPEEEIEEEAEEAAPQLPSRSSAAPPPPPRRATPEKKPKENPWATAEYDYDAAEDNELTFVENDKIINIEFVDDDWWLGELEKDGSKGLFPSNYVSLGN
modifications: synonymous S45S codon change in SH3 domain
In the case of B2, in the test on Hua2, the “HUA2_MTX2 = frequencies normalized to the reference condition” value came to 1.852 and the “hua2sc = Frequencies scaled to the synonymous mutation distribution (DMS score)” value is on record as 0.2394. Moreover, in the test with Lsb3, the “LSB3_MTX2 = frequencies normalized to the reference condition” value was 1.916 and the “lsb3sc = Frequencies scaled to the synonymous mutation distribution (DMS score)” value is 0.4157. For the same molecule, the quadrant entry in the test on Hua2 and Lsb3 is “Neutral”.
